Read-outs that look alike come from different tables or passages of the source.
B1: Mei5-Sae3 complex (complex, S. cerevisiae)
chain 1: MHNQEEWLDKDKTLVNEEENTCINHSYTKKDTNNYRVGKSGIKDLKKPTNQKEIAIKNRELTKQLTLLRQENNHLQQACKILSENKIIENRKSIEKWRTICEMELSFILNSTLIKINRMGGYKDFLEKEMEAKKRRLEYQIDNGMEDQICEIKESDDFRQLSEVEKQEWESQMNEQLKELEKKKIAELEKLNKVLHDSEGKDFGMAELCTRLKLDYSLIFPQ
chain 2: MNYLETQLNKKQKQIQEYESMNGNLIKMFEQLSKEKKNDETPKKISSTYIKELKEYNELRDAGLRLAQIIADEKQCKIKDVFEEIGYSMKD
B2: MBP-Mei5-N (domain or fragment, S. cerevisiae, UniProt P32489 1-121, looked up)
chain: MHNQEEWLDKDKTLVNEEENTCINHSYTKKDTNNYRVGKSGIKDLKKPTNQKEIAIKNRELTKQLTLLRQENNHLQQACKILSENKIIENRKSIEKWRTICEMELSFILNSTLIKINRMGG

Experiments:
[1] = target: T1, Rad51 (S. cerevisiae, UniProt P25454 1-400); assay: pull-down
T1 sequence (looked up): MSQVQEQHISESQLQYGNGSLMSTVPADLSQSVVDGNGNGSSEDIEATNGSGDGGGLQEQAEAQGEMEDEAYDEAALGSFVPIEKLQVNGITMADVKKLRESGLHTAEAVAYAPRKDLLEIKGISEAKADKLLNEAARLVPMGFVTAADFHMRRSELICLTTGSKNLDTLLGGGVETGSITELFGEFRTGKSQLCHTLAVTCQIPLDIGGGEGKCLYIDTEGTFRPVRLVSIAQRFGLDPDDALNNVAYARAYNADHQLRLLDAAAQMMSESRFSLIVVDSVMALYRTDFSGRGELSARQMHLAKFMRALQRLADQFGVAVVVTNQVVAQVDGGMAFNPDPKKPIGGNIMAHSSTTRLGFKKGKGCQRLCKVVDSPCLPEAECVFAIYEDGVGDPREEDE

[2] = target: T1, Rad51; assay: pull-down; remark: listed apart in the source

| Binder | binding result [1] | binding result [2] |
| --- | --- | --- |
| B1 | binds | – |
| B2 | – | binds |
